Experimental data taken from patent US20250282887A1 (Amgen, published 2025).

T1: human MAGEA5 (human, UniProt P43359 1-124)
T1 construct: whole, on cells; FFPE cell pellets
T1 sequence (looked up): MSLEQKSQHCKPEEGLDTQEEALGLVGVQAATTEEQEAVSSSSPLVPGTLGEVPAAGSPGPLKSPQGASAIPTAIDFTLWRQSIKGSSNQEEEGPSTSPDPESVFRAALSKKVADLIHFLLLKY

T2: human MAGEA8 (human, UniProt P43361 1-318)
T2 construct: whole, on cells; FFPE cell pellets
T2 sequence (looked up): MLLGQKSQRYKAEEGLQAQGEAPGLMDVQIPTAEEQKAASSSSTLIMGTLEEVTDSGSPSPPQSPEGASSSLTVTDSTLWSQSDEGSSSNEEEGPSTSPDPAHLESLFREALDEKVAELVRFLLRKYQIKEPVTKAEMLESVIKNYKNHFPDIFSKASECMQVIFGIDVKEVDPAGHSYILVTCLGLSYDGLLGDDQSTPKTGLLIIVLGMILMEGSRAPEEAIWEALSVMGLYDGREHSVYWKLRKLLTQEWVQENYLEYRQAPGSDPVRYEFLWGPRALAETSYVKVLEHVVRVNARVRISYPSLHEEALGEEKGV

T3: human MAGEA11 (human, UniProt P43364 1-429)
T3 construct: whole, on cells; Transfected into CHO cells with Myc/DDK tags
T3 sequence (looked up): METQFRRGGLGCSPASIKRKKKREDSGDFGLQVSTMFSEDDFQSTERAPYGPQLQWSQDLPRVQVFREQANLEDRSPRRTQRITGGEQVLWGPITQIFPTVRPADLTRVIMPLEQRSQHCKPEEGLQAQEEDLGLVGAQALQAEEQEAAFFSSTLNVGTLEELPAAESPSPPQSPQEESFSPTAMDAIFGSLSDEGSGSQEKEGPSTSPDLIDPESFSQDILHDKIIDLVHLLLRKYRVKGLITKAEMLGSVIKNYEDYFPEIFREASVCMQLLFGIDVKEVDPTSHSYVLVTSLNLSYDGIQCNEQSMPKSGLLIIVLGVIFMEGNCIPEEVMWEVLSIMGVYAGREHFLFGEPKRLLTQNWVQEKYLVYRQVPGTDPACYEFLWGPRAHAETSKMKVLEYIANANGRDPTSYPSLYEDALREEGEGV


Legend:
human MAGEA5 = molecular target: T1, human MAGEA5; assay: IHC, FFPE CHO cells transfected with human MAGEA5
From the text: (§1) Negative control cells included parental Chinese hamster ovary (CHO) cells, CHO cells stably transfected with mCherry Vector Control (minus Myc/DDK tags), CHO cells stably transfected with mCherry-human DCAF4L2 (plus Myc/DDK tags). The cross-reactivity control cells included CHO cells transfected with mCherry Vector Control (plus Myc/DDK tags) with one of the human MAGE-B or MAGE-A family members (MAGEA1, MAGEA2, MAGEA3, MAGEA4, MAGEA5, MAGEA6, MAGEA8, MAGEA9, MAGEA11, MAGEA12, MAGEB1, MAGEB3, MAGEB4, MAGEB5, MAGEB6, MAGEB10, MAGEB16, MAGEB17, MAGEB18). Positive control cell lines included CHO cells transfected with mCherry Vector (plus Myc/DDK tags) with human MAGE-B2 or CHO cells transfected with mCherry Vector (open reading frame (ORF); minus Myc/DDK tags) with human MAGEB2, and thirteen human cancer cell lines with known endogenous RNA expression level of MAGEB2 (U266B1, T98G, KMM-1, U20S, CFPAC-1, SCaBER, UACC-257, CFPAC-1, VMRC-LCD, NCI-H1703, UM-UC-3, NCI-H1395, NCIH82).
(§2) FFPE samples were sectioned at 4 μm and mounted on positive charged glass slides. After mounting, paraffin sections were air-dried at room temperature. FFPE TMA samples were received as freshly sectioned and mounted on glass slides. The fully automated IHC assay was performed on a Discovery Ultra Stainer (Ventana Medical Systems, Tucson, AZ) using Ventana Anti-Rabbit HQ (cat #760-4815), Ventana Anti-HQ HRP (cat #760-4820), and Ventana Antibody Diluent with Casein (cat #760-219) (Ventana Medical Systems, Tucson, AZ). The slides were baked on the Discovery Ultra Stainer at 60° C. for 8 minutes, de-paraffinized with Ventana Discovery wash (cat #950-510) for 3 cycles (8 minutes each) at 69° C., and underwent cell conditioning (target retrieval) at 95° C. for 16 minutes (for cell arrays) or 32 minutes (tissues or TMAs) in CC1 buffer (cat #950-500). Following this, slides were incubated with Background Sniper (cat #BS966M, Biocare Medical, Pacheco, CA) in a Ventana Option Prep kit (cat #771-751) for 28 minutes, incubated with CM inhibitor (a part of the Ventana DAB kit cat #760-159) for 12 minutes, and incubated for 1 h at RT with MAGE-B2 antibody diluted with Ventana diluent with Casein in a Ventana Prep kit (cat #770-001) (working concentration at 0.1 μg/ml for cell pellet, or 1-5 ug/ml for tissues) or with a matched concentration of isotype control Rabbit IgG1 antibody.

human MAGEA8 = molecular target: T2, human MAGEA8; assay: IHC, FFPE CHO cells transfected with human MAGEA8
From the text: as §1, §2

human MAGEA11 = molecular target: T3, human MAGEA11; assay: IHC, FFPE CHO cells transfected with human MAGEA11
Description: as §2, with “antibody. Following this, slides were incubated with the Ventana Anti-Rabbit HQ (cat #760-4815) for 28 minutes at RT, Ventana Anti-HQ HRP (cat #760-4820) for 28 minutes at RT, and signals detected with Ventana DAB chromogen kit (cat #760-159) for 5 minutes at RT. Slides were counterstained with Ventana Hematoxylin II (cat #5266726001) for 8 minutes and Ventana Bluing reagent (cat #526676900) for 4 minutes. Slides were coverslipped and digitized using an Aperio AT2 scanner (Leica Biosystems Inc, Buffalo Grove, IL).” for “antibody.”

| binding result (human MAGEA5) | binding result (human MAGEA8) | binding result (human MAGEA11) | Binder |
| --- | --- | --- | --- |
| no binding (tested: 0.1 µg/ml) | no binding (tested: 0.1 µg/ml) | no binding (tested: 0.1 µg/ml) | 1J15 (antibody, IgG1, V domains shown, Rabbit monoclonal IgG1; Tested as supernatant and as small batch purified antibody; also called MAGE-B2 (IJ15); anti-MAGEB2 antibody 1J15) VH: QSLEESGGGLVQPEGSLTLTCTAFGFTLNNYYICWVRQAPGKGLEWIACIDNANGRTYYASWAKGRFTISKTSSTTVTLQMTSLTAADTATYFCARSLSTPLWGPGTLVTVSS VL: DIVMTQTPASVEAAVGGTVTIKCQASQSISSYLSWYQQKPGQPPKLLIYRASTLASGVPSRFRGSGSGTQFTLTISDLECADAATYYCQSYDDSSDNNFFYGFGGGTEVVVR |
| no binding (tested: 0.1 µg/ml) | no binding (tested: 0.1 µg/ml) | no binding (tested: 0.1 µg/ml) | 1I14 (antibody, V domains shown, also called MAGE-B2 (1i14)) VH: QSVEESGGRLVTPGTPLTLTCTISGFSLSSYAMSWVRQAPGKGLEWIGSIGGGGSAVYASWAKGRFTISKTSTTVDLRITSPTTEDTAMYFCGRGFYSIDLWGPGTLVTVSS VL: DVVMTQTPASVEATVGGTVTIKCQSSQSVYDNNALAWYQQNAGQRPRLLIYGASTLASGVPSRFSASGSGTEFTLTISDLECADAATYYCQCTYYVSSYQNDFGGGTEVVVKG |

The remaining lines, values behind:

| Binder | binding result (human MAGEA5) | binding result (human MAGEA8) | binding result (human MAGEA11) |
| --- | --- | --- | --- |
| 1C3 (antibody, V domains shown, also called MAGE-B2 (IC3); anti-MAGEB2 antibody 1C3) VH: QSLEESGGGLVQPEGSLTLTCTAFGVTLTNYYICWVRQAPGKGLEWVGCIDNANGRTYYASWAKGRFTISKTSSTTGTLQMTSLTAADTATYFCARSLATPLWGPGTLVTVSS VL: DIVMTQTPSSVEAAVGGTVTIKCQASQNISSYLAWYQQKPGQPPKLLIYRASTLASGVPSRFKGSGSGTQFTLTISDLECADAATYYCQSYDDSRSSNFFYAFGGGTEVVVKG | no binding (tested: 0.1 µg/ml) | no binding (tested: 0.1 µg/ml) | no binding (tested: 0.1 µg/ml) |
| 4G17 (antibody, IgG1, V domains shown, Rabbit monoclonal IgG1; Tested as supernatant and as small batch purified antibody; also called MAGE-B2 (4G17); anti-MAGEB2 antibody 4G17) VH: QSLEESGGGLVQPEGSLTLTCTASGVTLSNYYICWVRQAPGKGLEWIGCIDNVNGRTYYASWAKGRFTISKTSSTTGTLQMTSLTAADTATYFCARSLATPLWGPGTLVTVSS VL: DIVMTQTPASVEAAVGGTVTIKCQASQNIDSYLAWYQQKPGQPPKLLIYRASTLASGVPSRFKGSGSGTEFTLTISDLECADAATYYCQSYDDSRSSSFFYGFGGGTEVVVK | no binding (tested: 0.1 µg/ml) | no binding (tested: 0.1 µg/ml) | no binding (tested: 0.1 µg/ml) |
